These results are taken from the supplement of paper PMC6755084.

To fix the notation:
B1: minF1; a variant is named by its letters at N, in order (parent)
chain: GAGACCGCAACTGAAAAGTTGTTNNNNAANNNNNGGNTNAATTTCTGCACGTAGAAGCAAAAGGC

Variants of B1 are the subject of the series. Description: fraction ligated after 30 min (ligated reads / total reads); higher = more ligase activity. The following applies: with F1*subA RNA substrate (template-directed ligation), 42 °C. The method, boiled down: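 Using barcoded primers for reverse transcription and a MiSeq for sequencing, gel-separated ligated and unligated RNAs of minimized ligase ribozyme variants were read, with core-base filtering at quality ≥30. Fraction ligated per variant was defined as ligated reads over total reads.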
With ACGATGGATGT A40G, the fraction ligated was found to be 0.0424. To ATCAATGGAGT A40G belongs 0.00544; to ATAGATGATGT, 0.000906; to TCAGATGGAGT A40G, 0.00532. To TCAGATGGAGT T23A G35T T38G A40T A41G belongs 0.000947; to ATCGTGGATTG, 0.0062; to ACAGTGGATGT, 0.00954. As to ATCAATGGTGT A28G, the fraction ligated amounted to 0.00146. To ATCGTGGTGTG belongs 0.00665; to ATCGATGATGT A40G, 0.0304; to TCAGATGGTGT T23A, 0.00338. Consider ATCAAAGGAGT A28G A40G, for which the fraction ligated was determined as 0.00414. Consider ATAGAGGATGT, for which the fraction ligated was 0.00209. As for ATAGATGAGTG, the figure is 0.00181; as for ATCAATGATTG A28G, 0.00338. As for TGAAGGATGTG A29T, the figure is 0.00393; as for CGAAGGATGTG T23A A29T, 0.00782; as for ATCAAATGGGT A28G G35A T38G A40T, 0.000933. Regarding ATCGTGGAGTG, the fraction ligated was 0.00282. To TCAGTGGATGT belongs 0.00577. Take TAGAGGATGTG: the fraction ligated came to 0.00132.

For the variant ATCATGGTGTG A28G, the fraction ligated was found to be 0.00296. For the variant ATCGATGGAGT G35T A40G, the fraction ligated stood at 0.0726. In the case of ATAGATGGAGT, the fraction ligated amounted to 0.00474. As for TCGAGGATGTG A29T, the fraction ligated came to 0.0105.

Turning to ACAATGGTGTG, the fraction ligated was determined as 0.00249. As for ATCAATGATGT A40G, the figure is 0.0188. As for ATAGATGGTGT, the fraction ligated was 0.00303. Take ATCAAGATGTG A28G: the fraction ligated is 0.00558. As to ATCATGGAGTG, the fraction ligated turned out to be 0.00635. On to TCAATGGTGTG T23A, for which the fraction ligated came out at 0.00318. With ATCAAAGATGT A28G A40G, the fraction ligated was determined as 0.0398. As to ATGATGGAGTG, the fraction ligated turned out to be 0.00146. As for TCAGATGATGT T23A, the figure is 0.00365. Take ATCATGGATGT A40G: the fraction ligated worked out at 0.0479. ATAGATGGGTG: the fraction ligated turned out to be 0.00409. As for TAGATGATGTG T23A, the figure is 0.00371; as for ATAGAGGATGT A40G, 0.00594; as for AAGATGATGTG, 0.0055. On to ATCAAAGGAGT A28G G35T, for which the fraction ligated was 0.00323. ACAGATGATGT: the fraction ligated stood at 0.00327. Regarding TCAGATGTGTG T23A, the fraction ligated worked out at 0.00194. Take TCAGATGGTTG: the fraction ligated came to 0.00217. As for ATCATGGAGTG A28G, the figure is 0.00478.

Consider CAGATGGATTG T23A, for which the fraction ligated came out at 0.00704. With TCAGATGGGTG T23A, the fraction ligated amounted to 0.00356.

Regarding ATCAAATGTGT A28G, the fraction ligated came to 0.00203.

In the case of ATCAATGTGTG A28G, the fraction ligated worked out at 0.00293. As to ATCAAGGTGTG A28G, the fraction ligated came out at 0.00322.

As for ATAGTGGATGT A40G, the fraction ligated was 0.0158. In the case of ACAGGGATGTG, the fraction ligated amounted to 0.00108.

Regarding ACAGATGATGT A40G, the fraction ligated came out at 0.00654. In the case of ATCAAAGGGTG A28G, the fraction ligated worked out at 0.0042. For the variant TCAGGGATGTG T23A A29T, the fraction ligated was 0.0174.

For ATCAAAGATGT A28G, the fraction ligated turned out to be 0.00546.

On to ATCAAGGAGTG, for which the fraction ligated turned out to be 0.00266. As for ATAATGGAGTG, the figure is 0.00187. With CAGATGGTGTG T23A, the fraction ligated is 0.0045.

As for ATAATGGTGTG, the fraction ligated was 0.00284. For the variant TAGATGGATGT A40G, the fraction ligated is 0.00383. To TCAGTGGTGTG belongs 0.00248; to TCAGAGGATTG, 0.00228; to TCAGATGATTG, 0.00341. As for ATAGATGATGT A40G, the fraction ligated was found to be 0.00341. As for ATAAGGATGTG A29T, the fraction ligated is 0.0199. As for ATCAAATGGGT A28G A40G, the fraction ligated was 0.00524. As to ATCAAATATTG A28G, the fraction ligated was determined as 0.00289. As for ATCAAATGAGT A28G G35T T38G A40T, the fraction ligated was 0.00229. With TCAGATGGAGT T23A G35T A40G, the fraction ligated was determined as 0.0397. Consider TCAGTGATGTG, for which the fraction ligated came out at 0.00229. For ATCAAATGTGT A28G A40G, the fraction ligated is 0.00666. Turning to CAGAGGATGTG A29T, the fraction ligated worked out at 0.00872. As to TCAGATGGATG T23A, the fraction ligated was 0.00344. As for TCAGGGATGTG A29T, the figure is 0.00613; as for ACAGTGGTGTG, 0.00205; as for TCAAGGATGTG, 0.00272. Consider ATAGATGGTTG, for which the fraction ligated came out at 0.00545.

For the variant TCGATGGATTG T23A, the fraction ligated was found to be 0.116. For the variant ATCATGGATGT A28G A40G, the fraction ligated was found to be 0.0551. To CAGATGGATTG belongs 0.00607. As for CAGATGGATGT T23A, the figure is 0.00559. ACGAGGATGTG A29T: the fraction ligated is 0.0139. As to TCAGATGATTG T23A, the fraction ligated is 0.00216. Take ACGATGATGTG: the fraction ligated is 0.00228. For ATCAAAGGATG A28G, the fraction ligated amounted to 0.0078. As for ATCAATATGTG A28G, the figure is 0.00244. For TCAGATATGTG, the fraction ligated turned out to be 0.000901. Turning to TCAGATGGAGT G35T T38G A40T, the fraction ligated came out at 0.00171. To ATCAAGGATGT A28G belongs 0.00393; to ACAGTGGATGT A40G, 0.017. Consider ATAATGATGTG, for which the fraction ligated was determined as 0.00474.

Turning to ATCAATGGTTG, the fraction ligated is 0.00416. As for ATCGTGATGTG, the fraction ligated came out at 0.00711. Consider ATAGATGGAGT G35T T38G A40T A41G, for which the fraction ligated came to 0.00159. ATCAATGGAGT A28G G35T: the fraction ligated was 0.0192. For the variant ATGATGATGTG, the fraction ligated is 0.00356. With TCAGTGGATGT T23A, the fraction ligated was 0.00804. To ATCGAGGAGTG belongs 0.00378. On to TCGAGGATGTG T23A A29T, for which the fraction ligated came to 0.013. CAGATGATGTG T23A: the fraction ligated came out at 0.00284. On to ATAGATGGATG, for which the fraction ligated came out at 0.00358. Turning to TCAGTGGAGTG T23A, the fraction ligated turned out to be 0.00419. Regarding TAGAGGATGTG T23A A29T, the fraction ligated was determined as 0.00989. Turning to CAAAGGATGTG A29T, the fraction ligated turned out to be 0.00429. With TAGATGGATGT T23A, the fraction ligated was determined as 0.00257.
